Results published in the nanobody polyreactivity screen of Harvey et al. (2022).

Assay: yeast display, Sf9 membrane polyspecificity reagent, FACS + sequencing; frameworks hold sequencing errors
Summary of the method: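 After 36–48 hours of galactose induction, yeast (Saccharomyces cerevisiae BJ5465) displaying a synthetic nanobody library were stained at 4 °C for 1 hour with 10% biotinylated, detergent-solubilized Sf9 membrane reagent. Streptavidin microbeads enriched the stained cells before FACS sorting into low and high (top ~1%) gates on anti-HA and streptavidin fluorescence. Each clone's polyreactivity label reflects its gate of origin.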

| Sequence | polyreactivity (PSR sort gate) |
| --- | --- |
| QVQLVESGGGLVQAGGSLRLSCAASGRIFYSNAMGWYRQAPGKERELVAASRWSGTRTSYADSVKGRFTISRDNAKNTVYLQMNSLKPEDTAVYYCAAAGWYHSYWGQGTQVTVSS | high polyreactivity |
| QVQLVESGGGLVQAGGSLRLSCAASGRIFYSNAMGWYRQAPGKERELVAGINYRDGSTYYADSVKGRFTISRDNAKKTVYLQMNSLKPEDTAVYYCAKRRQSYPYKTSTWYSHYSWGQGTQVTVSS | high polyreactivity |
| QVQLVESGGGLVQAGGSLRLSCAASGRIFYSNAMGWYRQAPGKERELVATISTGGSTYAESVKGRFTISRDNAKNTVYLQLISLTPEESAVYYCAVDEWRWRVGAVAYYYWGQGTQVTVSS | low polyreactivity |
| QVQLVESGGGLVQAGGSLRLSCAASGRIFYSNAMGWYRQAPGKERELVAVIRRTGSTYYADSVKGRFTISRDNAKNTVYLQMNSLKPEDTAVYYCATRIPYGRGGNRYDYWGQGTQVTVSS | low polyreactivity |
| QVQLVESGGGLVQAGGSLRLSCAASGRIFYSNVMGWYRQAPGKERELVAAIRFSGGGTYYADSVKGRFTITRDNAKNTVYLQMNSLKPEDTAVYYCAAEYYLRVSGRTYVTSHDYWGQGTQVTVSS | high polyreactivity |
| QVQLVESGGGLVQAGGSLRLSCAASGRIFYSNVMGWYRQAPGKERELVAAISGRTGGTYYADSVKGRFTISRDNAKNTVYLQMNSLKPEDTAVYYCNAYSLRHHHSDYWGQGTQVTVSS | low polyreactivity |
| QVQLVESGGGLVQAGGSLRLSCAASGRIFYSYAMGWYIPAPGKERELVAAITVSGGSTFYADSVKGRFTISRDNAKNTVYLQMNSLKPEDTAVYYCAAQSTTIEDGWYVEYNYWGQGTQVTVSS | high polyreactivity |
| QVQLVESGGGLVQAGGSLRLSCAASGRIFYSYAMGWYREAPGKERELVAAIDESDGSTYYADSVKGRFTISRDNAKNTVYLQMNSLKQEDTADYYCNADLTLGGEFDYWGHGTQVTVSS | low polyreactivity |
| QVQLVESGGGLVQAGGSLRLSCAASGRIFYSYAMGWYRQAPGKEREFVAAISRSGARTYYADSVKGRFTISRDNAKNTVYLQMNSLKPEDTAVYYCAADDFSTVEYDYWGQGTQVTVSS | low polyreactivity |
| QVQLVESGGGLVQAGGSLRLSCAASGRIFYSYAMGWYRQAPGKERELVAAIDESDGSPYYADSVKGRFTISRDNAKNTVYLQMNSLKPEDTAVYYCAADSLLVLFDYWGQGTQVTVSS | low polyreactivity |
| QVQLVESGGGLVQAGGSLRLSCAASGRIFYSYAMGWYRQAPGKERELVAAIDESDGSTYYADSVKGRFTISRDNAKNTVYLQMNSLKPEDTAVYYCAAGYLDVLWLLDLLQLYGYWGQGTQVTVSS | low polyreactivity |
| QVQLVESGGGLVQAGGSLRLSCAASGRIFYSYAMGWYRQAPGKERELVAAISWSGGRTYYADSVKGRFTISRDNAKNNVYLQMNSLKPEDTAVYYCARRGYYYDYWGQGTQVTVSS | high polyreactivity |
| QVQLVESGGGLVQAGGSLRLSCAASGRIFYSYAMGWYRQAPGKEWELVAVNTGGGRTYYADSVKGRFTISRDNAKNTVYLQMNSLKPEDTAVYYCAYRYGGTFRYDYWGQGTQVTVSS | high polyreactivity |
| QVQLVESGGGLVQAGGSLRLSCAASGRIFYSYAMGWYRQATGKEREMVASISRSGAITNYADSVKGRFTISRDNAKNPVYLQMNSLIPEDTAVYYCAARLRRVYPPYDYWGQGTQVTVSS | high polyreactivity |
| QVQLVESGGGLVQAGGSLRLSCAASGRIFYSYARGWYRQAPGKERELVAAIDESDGSTYYADSVKGRFTISRDNAKNTVYLQMNSLKPEDTAVYYCAADSLLVLFDYWGQGTQVTVSS | low polyreactivity |
| QVQLVESGGGLVQAGGSLRLSCAASGRIFYSYVMGWYRQAPGKERELVAAIRWGGGSTYYADSVKGRFTISPDNPKNTVYLQMNSLKPEDTAVYYCAAAYNWRKYDYWGQGTQVTVSS | high polyreactivity |
| QVQLVESGGGLVQAGGSLRLSCAASGRIFYTNAMGWYRQAPGKERELVAAIKWNGGRTYYADSVKGRFTISRDNAKNTVYLQMNSLKPEDTAVYYCAAGAPVDPWYSGLVVLDGMDYWGQGTQVTVSS | low polyreactivity |
| QVQLVESGGGLVQAGGSLRLSCAASGRIFYTNAMGWYRQAPGKERELVAVISWGGDTTYYADSVKGRFTISRDNAKNTVYLQMNSLKPEDTAVYYCNADWGPTYEIYDSWGQGTQVTVSS | low polyreactivity |
| QVQLVESGGGLVQAGGSLRLSCAASGRIFYTNVMGWYRQAPGKERELVAAISTGGGRTYYADSVKGRFTISRDNAKNTVYLQMNSLKPEDTAVYYCAASGRYAIVWGDQYYGYYYWGQGTQVTVSS | high polyreactivity |
| QVQLVESGGGLVQAGGSLRLSCAASGRIFYTYAMGWYRQAPGKERELVAAISSRTGSTYYADSVKGRFTISRDNAKNTVYLQMNSLKPEDTAVYYCNAYRLRYGYDYWGQGTQVTVSS | high polyreactivity |
| QVQLVESGGGLVQAGGSLRLSCAASGRIFYTYAMGWYRQAPGKERELVAVISSGGSTNYADSVKGRFTISRDNAKNTVYLQMNSLKPEDTAVYYCAAYGTKWGRGFYITGYGYWGQGTQVTVSS | low polyreactivity |
| QVQLVESGGGLVQAGGSLRLSCAASGRIFYVNAMAWYRQAPGTEREFVAAIRVDGASTYYADSVKGRFTFSRDNAKNTVYLQMNSLKPEDTAVYYCAARTRSYWSTTYYYWGQGTEVTVSS | high polyreactivity |

| Sequence | polyreactivity (PSR sort gate) |
| --- | --- |
| QVQLVESGGGLVQAGGSLRLSCAASGRIFYVNAMGWYRQAPGKERELVAAIDVNDGITYYADSVKGRFTISRDNAKNTVYLQMNSLKPEDTAVYYCAAETLYWNDIIWDVEYWGQGTQVTVSS | high polyreactivity |
| QVQLVESGGGLVQAGGSLRLSCAASGRIFYVNTMGWYRPAPGKERELVATITWGGDSTYYADSVKGRFTISRDNAKNTVYLQMNSLKPEDTAVYYCAADHHDIRLNTRRNDYRGQGTQVTVSS | low polyreactivity |
| QVQLVESGGGLVQAGGSLRLSCAASGRIFYVYAMGWYRAPGKERELVASISYIGGSTYYADSVKGRFTISRDNAKNTVYLQMNSLKPEDTAVYYCATDYYGYTVSYLVPSWPDDYWGQGTQVTVSS | low polyreactivity |
| QVQLVESGGGLVQAGGSLRLSCAASGRIFYVYAMGWYRQAPGKERELVAAISWSGGGTYYADSVKGRFTISRDNAKNTVYLQMNSLKPEDTAVYYCATVSGVPPGSHDYWGQGTQVTVSS | low polyreactivity |
| QVQLVESGGGLVQAGGSLRLSCAASGRIFYVYAMGWYRQAPGKERELVAAITISGGSTYYADSVKGRFTISRDNAKNTVYLQMNSLKPEDTAVYYCAAGTQAHAYVVRPIEMDYWGQGTQVTVSS | low polyreactivity |
| QVQLVESGGGLVQAGGSLRLSCAASGRIFYVYAMGWYRQAPGKERELVATISWSAGITYYADSVKGRFTISRDNAKNTVYLQMNSMKPEDTAVYYCAKVGRYTYSGQYDYWGQGTQVTVSS | high polyreactivity |
| QVQLVESGGGLVQAGGSLRLSCAASGRIFYVYTMGWYRQARGKERELVAAISWSGGSTHYADSVKGRFTISRDNAKNTVYLQMNSLKTEYTAVYYCNKGVVSRVAFEYWGQGTQVTVSS | low polyreactivity |
| QVQLVESGGGLVQAGGSLRLSCAASGRIFYWNAMGWYRQAPGKERELVAGITGGGNTNYADSVKGRFTISRDNAKNTVYLQMNSLKPEDTAVYYCATRTNRRRSYDYWGQGTQVTVSS | high polyreactivity |
| QVQLVESGGGLVQAGGSLRLSCAASGRIFYWYAMGWYRQAPGKERELVATINQSGSSTYYADSVKGRFTISRDNAKNTVYLQMYSLKPEDTAVYYCNAGGQRPHSVGLVGEMGYWGQGTKVTVSS | high polyreactivity |
| QVQLVESGGGLVQAGGSLRLSCAASGRIFYYAMGWYRPAPGKERELVAAISRSGGSTYYADSVKGRFTISRDNAKNTVYLQMNSLKPEDTAVYYCAAVIYIYPISKRDYWGQGTQVTVSS | low polyreactivity |
| QVQLVESGGGLVQAGGSLRLSCAASGRIFYYNAMGGYTQAPGKERELVAAIDWSGGSTYYADSVKGRITISRANAKNTVYLQMNSLKPEDTAVYYCNAPFRYVPPEGSGPYDYWGQGTQVTVSS | low polyreactivity |
| QVQLVESGGGLVQAGGSLRLSCAASGRIFYYNAMGWYRQAPGKEREFVAAISSGGGSTYYADSVKGRFTISRDNAKNTVYLQMNSLKPEDTAVYYCAADGYYYDYYYYWGDYGYWGQGTQVTVSS | high polyreactivity |
| QVQLVESGGGLVQAGGSLRLSCAASGRIFYYNAMGWYRQAPGKERELVAAITRGGSTYYADSVKGRFTISRDNAKNTVYLQMNCLKPVDTAVYYCAADRPGYSRYTTSVKGQRYYYWGQGTQVTVSS | high polyreactivity |
| QVQLVESGGGLVQAGGSLRLSCAASGRIFYYNAMGWYRQAPGKERELVAAITSGGSTNYADSVKGRFSISRDNAKNTVYLQMNSLNPEDTAVYYCAADYYYYVAGVHYDYWGQGTQVTVSS | low polyreactivity |
| QVQLVESGGGLVQAGGSLRLSCAASGRIFYYNAMGWYRQAPGKERELVAAITYSGTSTYYADSVKGRFTISRDNAKNTVYLQMNSLKPEDSAVYYCAVDSTDQAPPTYDYWGQGTQVTVSS | low polyreactivity |
| QVQLVESGGGLVQAGGSLRLSCAASGRIFYYNAMGWYRQAPGKERELVAGITSRGRSTYADSVKGRFTISRDNAKNTVYLQMNSLKPEDTAVYYCAAVYRLWGKDYDYWGQGTQVTVSS | high polyreactivity |
| QVQLVESGGGLVQAGGSLRLSCAASGRIFYYNAMGWYRQAPGKERELVASITGSGGSTYYADSVKGRFTISRDNAKNTVYLQMNSLKPEDTAVYYCANREYLYPYYYVAKYDYWGQGTQVTVSS | low polyreactivity |
| QVQLVESGGGLVQAGGSLRLSCAASGRIFYYNDMGWYRQAPGKERELVAAITWTDDGTYYADSVKGRFTISRDNAKNTVFLQMNSLKPEDTAVYYCAAESFYGFEYWGQGTQVTVSS | low polyreactivity |
| QVQLVESGGGLVQAGGSLRLSCAASGRIFYYNSKGWYRQAPGKERELVAAITSGDNTKYADSVKGRFTISRDKAKNTVYLQMNSLKPEDTAVYYCAARRYAPYQRRMDYWGQGTQVTVSS | high polyreactivity |
| QVQLVESGGGLVQAGGSLRLSCAASGRIFYYNTMGWYRQAPGKERELVAAITTNGGSTYYADSVKGRFTISRDNAKNTVYLQMNSLKPLDTAVYYCKRDRYPYYYAYNYWGQGTQVTVSS | low polyreactivity |
| QVQLVESGGGLVQAGGSLRLSCAASGRIFYYYAMGWYRQAPGKEREFVAAISQRGGSTSYADSVKGRFTISRDNAKNTVYLQMNSLKPEDTAVYYCAAEYYLRVSGRTYVTSHDYWGQGTQVTVSS | high polyreactivity |
